What follows are sequences tested on Escherichia coli TOP10 (assay: shrunken log2 fold change of peptide-encoding DNA abundance (4.5 h post-induction vs induction); higher = less antimicrobial activity (less host growth inhibition)). Details: time post-induction: 4.5 h; library: site-saturation at positions 5, 18, 19, 20.
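Also: peptides expressed intracellularly from a pBAD plasmid library in pooled LB shake-flask culture, induced with 0.3% L-arabinose, DNA abundance read by NGS, three biological replicates, DESeq2 with apeglm shrinkage.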

Compared with RRIRRRPPRLPRPRPRPQRQPRP, RRIRKRPPRLPRPRPRPWYGPRP is lower in “shrunken log2 fold change” value: 0.175 for the first, -0.188 for the second.

RRIRQRPPRLPRPRPRPGVVPRP and RRIRWRPPRLPRPRPRPKEDPRP are within 0.2 log units of each other in “shrunken log2 fold change” value: 0.000417 for the first, 0.0809 for the second.

RRIRNRPPRLPRPRPRPHQDPRP and RRIRVRPPRLPRPRPRPWIGPRP are within 0.2 log units of each other in “shrunken log2 fold change” value: -0.297 for the first, -0.166 for the second.

First: RRIRCRPPRLPRPRPRPHCWPRP
Second: RRIRLRPPRLPRPRPRPTLIPRP
The “shrunken log2 fold change” value of the first is higher: -0.0254 for the first, -0.407 for the second.

Compared with RRIRLRPPRLPRPRPRPMMPPRP, RRIRIRPPRLPRPRPRPRGYPRP is lower in “shrunken log2 fold change” value: -0.174 for the first, -0.794 for the second.

Compared with RRIRNRPPRLPRPRPRPKRQPRP, RRIRFRPPRLPRPRPRPGYMPRP is lower in “shrunken log2 fold change” value: -0.0692 for the first, -0.922 for the second.

RRIRQRPPRLPRPRPRPSETPRP and RRIRERPPRLPRPRPRPGNVPRP are within 0.2 log units of each other in “shrunken log2 fold change” value: -0.216 for the first, -0.197 for the second.

Going from RRIRERPPRLPRPRPRPKGWPRP to RRIRTRPPRLPRPRPRPKAMPRP, the “shrunken log2 fold change” value falls from 0.493 to 0.0836.

First: RRIRYRPPRLPRPRPRPSLMPRP
Second: RRIRDRPPRLPRPRPRPPHKPRP
The “shrunken log2 fold change” value of the first is lower: -0.556 for the first, 0.0115 for the second.

RRIRMRPPRLPRPRPRPATYPRP and RRIRRRPPRLPRPRPRPCQAPRP are within 0.2 log units of each other in “shrunken log2 fold change” value: 0.0281 for the first, 0.0144 for the second.

Compared with RRIRYRPPRLPRPRPRPNCEPRP, RRIRPRPPRLPRPRPRPALRPRP is higher in “shrunken log2 fold change” value: -0.144 for the first, 0.545 for the second.

RRIRIRPPRLPRPRPRPIDFPRP and RRIRARPPRLPRPRPRPFAVPRP are within 0.2 log units of each other in “shrunken log2 fold change” value: -0.0103 for the first, 0.129 for the second.

Going from RRIRFRPPRLPRPRPRPMAHPRP to RRIRQRPPRLPRPRPRPLCYPRP, the “shrunken log2 fold change” value falls from 0.0587 to -0.383.

First: RRIRRRPPRLPRPRPRPCWNPRP
Second: RRIRDRPPRLPRPRPRPNMQPRP
The “shrunken log2 fold change” value of the first is higher: -0.00252 for the first, -0.339 for the second.

Going from RRIRERPPRLPRPRPRPKEEPRP to RRIRFRPPRLPRPRPRPYFNPRP, the “shrunken log2 fold change” value falls from -0.000921 to -1.04.

RRIRDRPPRLPRPRPRPTDDPRP and RRIRSRPPRLPRPRPRPDIRPRP are within 0.2 log units of each other in “shrunken log2 fold change” value: -0.0281 for the first, -0.0108 for the second.

First: RRIRIRPPRLPRPRPRPAIEPRP
Second: RRIRKRPPRLPRPRPRPAHAPRP
The “shrunken log2 fold change” value of the first is lower: -0.0797 for the first, 1.11 for the second.

Compared with RRIRFRPPRLPRPRPRPYMKPRP, RRIRFRPPRLPRPRPRPCGIPRP is higher in “shrunken log2 fold change” value: -0.858 for the first, -0.168 for the second.

Going from RRIRFRPPRLPRPRPRPLAWPRP to RRIRMRPPRLPRPRPRPDCNPRP, the “shrunken log2 fold change” value rises from 0.32 to 2.08.

RRIRERPPRLPRPRPRPLLSPRP and RRIRYRPPRLPRPRPRPDSDPRP are within 0.2 log units of each other in “shrunken log2 fold change” value: -0.206 for the first, -0.179 for the second.

First: RRIRVRPPRLPRPRPRPAEFPRP
Second: RRIRWRPPRLPRPRPRPIMIPRP
The “shrunken log2 fold change” value of the first is higher: 0.151 for the first, -0.28 for the second.

RRIRLRPPRLPRPRPRPNRAPRP and RRIRNRPPRLPRPRPRPQMGPRP are within 0.2 log units of each other in “shrunken log2 fold change” value: 0.0133 for the first, 0.102 for the second.

RRIRPRPPRLPRPRPRPNVRPRP and RRIRTRPPRLPRPRPRPAIQPRP are within 0.2 log units of each other in “shrunken log2 fold change” value: -0.163 for the first, -0.216 for the second.

RRIRYRPPRLPRPRPRPAMFPRP and RRIRLRPPRLPRPRPRPASSPRP are within 0.2 log units of each other in “shrunken log2 fold change” value: -0.229 for the first, -0.0827 for the second.

Going from RRIRERPPRLPRPRPRPPANPRP to RRIRYRPPRLPRPRPRPNICPRP, the “shrunken log2 fold change” value falls from 0.0983 to -0.204.

Compared with RRIRWRPPRLPRPRPRPSESPRP, RRIRVRPPRLPRPRPRPHQVPRP is lower in “shrunken log2 fold change” value: 0.0933 for the first, -0.111 for the second.

Going from RRIRVRPPRLPRPRPRPLIYPRP to RRIRWRPPRLPRPRPRPRREPRP, the “shrunken log2 fold change” value rises from -0.632 to 0.427.

First: RRIRSRPPRLPRPRPRPLVWPRP
Second: RRIRCRPPRLPRPRPRPGFMPRP
The “shrunken log2 fold change” value of the first is higher: 0.272 for the first, -0.429 for the second.

First: RRIRTRPPRLPRPRPRPQYIPRP
Second: RRIRQRPPRLPRPRPRPFIRPRP
The “shrunken log2 fold change” value of the first is lower: -0.331 for the first, -0.00448 for the second.

Compared with RRIRTRPPRLPRPRPRPPRRPRP, RRIRYRPPRLPRPRPRPGWDPRP is lower in “shrunken log2 fold change” value: 0.386 for the first, -0.0163 for the second.

Reference: the supplement of paper PMC9112550, “Optimization of the antimicrobial peptide Bac7 by deep mutational scanning” (BMC Biology, 2022)
